Target: T1, A/Serbia/NS-601/2014 H1N1 NA, soluble tetramer with His tag attached (Influenza A virus A/Serbia/NS-601/2014 …, strain)
T1 chain: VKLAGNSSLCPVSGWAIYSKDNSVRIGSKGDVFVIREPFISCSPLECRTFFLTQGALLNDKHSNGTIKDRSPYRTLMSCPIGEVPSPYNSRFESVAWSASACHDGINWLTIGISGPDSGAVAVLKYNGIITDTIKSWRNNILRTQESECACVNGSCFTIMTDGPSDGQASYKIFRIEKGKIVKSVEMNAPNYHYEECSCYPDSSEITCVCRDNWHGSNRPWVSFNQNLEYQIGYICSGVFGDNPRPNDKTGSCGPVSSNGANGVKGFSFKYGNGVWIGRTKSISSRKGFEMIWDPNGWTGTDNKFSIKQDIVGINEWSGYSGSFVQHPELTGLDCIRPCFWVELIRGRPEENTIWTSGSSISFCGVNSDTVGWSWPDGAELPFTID
Experiment: SPR
Details: both partners purified

B1: Z2B3-D102R Fab (Fab, V domains shown)
VH: EVQLVQSGAEVKKPGSSVKVSCKASGGPFSSYGFSWVRQAPGQGLEWMGGIIPVYGTTNYAQKFQGRVTITADESTSTAYMELSSLKSEDTAVYYCARDLQRTPMVDRIIGSYYYYNGLDVWGQGTTVTVSS
VL: QSVLTQPASVSGSPGQSITISCTGASSDVGDYNYVSWYQQHPGKAPKLMIYDVSNRPSGVSNRFSGSKSGDTASLTISGLQAEDEADYYCSSYTRSSSVVFGGGTKLTVL
Q: Which Kd does the source give for B1 here?
A: 401 nM

Source: PMC7542365 (mBio, 2020)
